Measurements from publication PMC8583942, “An Engineered Thermostable Laccase with Great Ability to Decolorize and Detoxify Malachite Green” (International Journal of Molecular Sciences, 2021).

Substrate: CCn1c(=NN=c2sc3cc(S(=O)(=O)O)ccc3n2CC)sc2cc(S(=O)(=O)O)ccc21
Assay: purified protein
Format: biochemical, Geothermobacter hydrogeniphilus
Conditions: 1 mM CuSO4, 20 mM acetate pH 4.0, 60 °C

B1: Ghlac WT (Geothermobacter hydrogeniphilus) (protein)
chain: MKMARNGKISYLEPEWITGSLRAGFTTRNGGISRAPYNSLNLGLNTEDPRPNVEGNRSTLVRAFGLEVHQLLTVRQVHGNNILVVDEPNPDLSHFQQVECDAIISNQPGMMIGVLVADCYPVLLAAPAQGVVAAVHVGWRGAVAQIIQRTVDALQEQFGVCPEELLAAVGPGIGAHAYEVDRPVRDQFRKAGLPWAGVAEESRLGHWKLDLRETCRRQLLTAGVVRTHIDLAEECTCCHRELLFSHRRDNGRTGRQLGFILLT
notes: codon-optimized in pET-28a(+) NcoI/XhoI; E. coli BL21(DE3)
For B1, the Km was 1300 µM and the kcat was 2.095 s⁻¹.
